The target in assay [1] is mouse IL-33 (residues 112-270) (mouse). Description: SPR; 1000-1200 RU ST2-Fc captured on a protein A/G-coated CM5 chip; mIL-33 (2 µM) alone or mixed with 2.5 µM HpARI2, HpARI2_CCP2/3 or HpARI2-LD flowed; 20 mM Tris-Cl pH 8.0, 150 mM NaCl, 1 mg/ml salmon sperm DNA, 0.02% Tween-20. In general terms: In SPR one partner is held on a chip, and binding of the other changes the refractive index at the surface.

The target is the same in assay [2].
The target of assay [3] is full-length HpARI2 (Alarmin Release Inhibitor, Heligmosomoides polygyrus bakeri) (Heligmosomoides polygyrus bakeri). Description: SPR; 400-450 RU biotinylated HpARI2 captured on the chip; two-fold series (1000 nM to 15.62 nM) of hIL-33 or hIL-33:S158R flowed.
Assay [4] concerns the target HpARI2-LD (full-length HpARI2 with residues 180-188 of the CCP3 loop deleted) (Heligmosomoides polygyrus bakeri). Description: SPR; screening of HpARI2 variants for mIL-33 binding at one concentration (legend: HpARI2 concentration of 100 nM); same reagents and equipment as the kinetic SPR; n = 3.
In assay [5] the target is full-length HpARI2 (Alarmin Release Inhibitor, Heligmosomoides polygyrus bakeri) (Heligmosomoides polygyrus bakeri). Description: SPR; biotinylated HpARI2 variant (300-400 RU) captured with the Biotin CAPture kit; two-fold series of IL-33 flowed at 40 µl/min; 25 °C; 20 mM Tris-Cl pH 8.0, 150 mM NaCl, 1 mM EDTA, 0.02% Tween-20, 1 mg/ml salmon sperm DNA; Langmuir fit.
The target of assay [6] is HpARI2_CCP1/2 (HpARI2 lacking CCP3) (Heligmosomoides polygyrus bakeri). The assay is described as above.
In assay [7] the target is HpARI2_CCP2/3 (HpARI2 lacking CCP1) (Heligmosomoides polygyrus bakeri). The assay is described as above.
Assay [8] deals with HpARI2-LD (full-length HpARI2 with residues 180-188 of the CCP3 loop deleted) (Heligmosomoides polygyrus bakeri). The assay is described as above.
Assay [9] deals with HpARI2_CCP2/3 (Heligmosomoides polygyrus bakeri). Description: SPR; biotinylated HpARI2 variant (300-400 RU) captured on a Biotin CAPture chip, two-fold series of mIL-33 (or mIL-33 R159A) injected; Biacore T200, 25 °C, 20 mM Tris-Cl pH 8.0, 150 mM NaCl, 1 mM EDTA, 0.02% Tween-20, 1 mg/ml salmon sperm DNA; Langmuir 1:1 fit.

A word on the Kd: it is the concentration at which binding is half-saturated. Higher therefore signals a looser complex.

In [1], “HpARI2-LD (full-length HpARI2 with residues 180-188 of the CCP3 loop deleted) (natural protein)” gave a percent reduction of mIL-33 binding to ST2-Fc at 2.5 µM HpARI2-LD of 25%. The same substance yielded a protein concentration needed for the same inhibition of IL-5 and IL-13 release as wild-type HpARI2 (bone marrow-derived ILC2s) in assay [2] of 100 fold.
For “human IL-33 (from UniProt O95760 1-270) (ligand)”, the Kd in [3] is 65 nM.
In turn, “human IL-33 S158R mutant (from UniProt O95760) (ligand)” had a fold increase of HpARI2 binding against human IL-33 in assay [3] above 100 fold.
Substance mouse IL-33 (residues 112-270) (ligand) returned a percent reduction of mIL-33 binding against HpARI2 in [4] of 60%. Also, the dissociation constant (Kd) in assay [5] amounted to 0.048 nM; in assay [6] it was 49 nM; in assay [7] it was 4 nM; in assay [8] it was 45 nM. Further, in assay [6], the fold koff against full-length HpARI2 is above 100 fold.
The substance mouse IL-33 R159A (ligand) had an equilibrium dissociation constant (Kd) in [9] of 3800 nM.
For mouse IL-33 R159A mutant (ligand), the fold reduction in binding affinity against wild-type mIL-33 in assay [7] amounted to 1000 fold.

For the origin of these results see paper PMC11189471.
